Assay results as given in US8748104.
pKd: −log10 of the molar value. Like-named read-outs stand apart in the source and are kept apart here.

Key:
[1] = molecular target: skeletal Troponin I (UniProt P48788); details: Luminex bead fluorescence assay, streptavidin-phycoerythrin detection; room temperature 1 h, PBS washes
[2] = molecular target: skeletal Troponin I (UniProt P48788); details: Luminex bead fluorescence assay, streptavidin-phycoerythrin detection; room temperature 1 h, PBS washes; remark: listed apart in the source

Sequence of UniProt P48788 (P48788 2-182): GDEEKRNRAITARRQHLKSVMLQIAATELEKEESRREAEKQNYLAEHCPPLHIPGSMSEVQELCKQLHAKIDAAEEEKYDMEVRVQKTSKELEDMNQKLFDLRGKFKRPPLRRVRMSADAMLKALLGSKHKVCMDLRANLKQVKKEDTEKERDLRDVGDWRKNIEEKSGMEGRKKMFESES

Row | Sequence | pKd [1] | pKd [2]
1 | GGGATGGGGTGGGTGGCCAGCGATT [SEQ ID NO: 1 aptamer] | 7.42 | –
2 | TTAGGGGTGGTGTGGTTGGCAATTC [SEQ ID NO: 2 aptamer] | – | 8.30
